The record followed here is doi:10.1101/2021.09.01.458653 (bioRxiv, 2021).

The target in the test is RBD-Fc (secreted recombinant receptor-binding domain of SARS-CoV-2 spike) (SARS-CoV-2, UniProt P0DTC2). Description: immunoassay on cellulose filter paper discs.

B1: Ty1-CBD bifunctional fusion protein (nanobody Ty1 fused to a cellulose-binding domain) (VHH)
VHH: QVQLVETGGGLVQPGGSLRLSCAASGFTFSSVYMNWVRQAPGKGPEWVSRISPNSGNIGYTDSVKGRFTISRDNAKNTLYLQMNNLKPEDTALYYCAIGLNLSSSSVRGQGTQVTVSS
As for B1, the binding result is reported as “binds”.

B2: Ty1 without CBD module (control protein) (VHH)
VHH: QVQLVETGGGLVQPGGSLRLSCAASGFTFSSVYMNWVRQAPGKGPEWVSRISPNSGNIGYTDSVKGRFTISRDNAKNTLYLQMNNLKPEDTALYYCAIGLNLSSSSVRGQGTQVTVSS
Consider B2, for which the binding result is recorded as “binds”.
